Results reported in patent US20190134153A1, “IMMUNOMODULATORY EFFECT OF INHALED KINASE INHIBITOR PEPTIDES IN LUNG” (MOERAE MATRIX, INC., priority 2017, published 2019).

Tests used:
Test in all cases: Kinase Profiling Assay
Type in all cases: biochemical
Details in all cases: 100 μM
Rse(h) = target: T1, Rse(h) (Homo sapiens, UniProt Q06418)
T1 sequence (Q06418 41-890): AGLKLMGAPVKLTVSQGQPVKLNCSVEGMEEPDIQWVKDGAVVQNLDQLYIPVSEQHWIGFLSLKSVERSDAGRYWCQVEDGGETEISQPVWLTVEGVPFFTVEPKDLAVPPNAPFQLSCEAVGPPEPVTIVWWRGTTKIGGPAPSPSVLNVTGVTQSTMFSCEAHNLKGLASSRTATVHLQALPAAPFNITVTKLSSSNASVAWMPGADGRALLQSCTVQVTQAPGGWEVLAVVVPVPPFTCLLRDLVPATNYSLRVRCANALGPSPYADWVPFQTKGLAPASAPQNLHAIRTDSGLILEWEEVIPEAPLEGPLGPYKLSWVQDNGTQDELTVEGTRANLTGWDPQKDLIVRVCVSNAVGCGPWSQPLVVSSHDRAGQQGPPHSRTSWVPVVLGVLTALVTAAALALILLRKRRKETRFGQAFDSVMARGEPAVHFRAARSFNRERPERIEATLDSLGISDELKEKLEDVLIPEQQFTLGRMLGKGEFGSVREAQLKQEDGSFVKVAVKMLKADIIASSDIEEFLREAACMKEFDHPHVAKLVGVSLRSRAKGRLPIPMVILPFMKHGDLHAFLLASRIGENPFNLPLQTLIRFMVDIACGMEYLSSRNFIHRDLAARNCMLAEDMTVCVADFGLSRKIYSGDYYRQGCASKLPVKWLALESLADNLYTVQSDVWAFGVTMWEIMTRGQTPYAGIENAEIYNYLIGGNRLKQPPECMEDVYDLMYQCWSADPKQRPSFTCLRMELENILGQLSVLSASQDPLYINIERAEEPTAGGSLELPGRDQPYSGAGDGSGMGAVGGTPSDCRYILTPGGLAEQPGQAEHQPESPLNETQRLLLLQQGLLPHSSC

Ret(V804M)(h) = Ret(V804M)(h) (Homo sapiens, UniProt P07949, V804M)
SGK(h) = target: T2, SGK(h) (Homo sapiens, UniProt O00141)
T2 sequence (O00141 1-431): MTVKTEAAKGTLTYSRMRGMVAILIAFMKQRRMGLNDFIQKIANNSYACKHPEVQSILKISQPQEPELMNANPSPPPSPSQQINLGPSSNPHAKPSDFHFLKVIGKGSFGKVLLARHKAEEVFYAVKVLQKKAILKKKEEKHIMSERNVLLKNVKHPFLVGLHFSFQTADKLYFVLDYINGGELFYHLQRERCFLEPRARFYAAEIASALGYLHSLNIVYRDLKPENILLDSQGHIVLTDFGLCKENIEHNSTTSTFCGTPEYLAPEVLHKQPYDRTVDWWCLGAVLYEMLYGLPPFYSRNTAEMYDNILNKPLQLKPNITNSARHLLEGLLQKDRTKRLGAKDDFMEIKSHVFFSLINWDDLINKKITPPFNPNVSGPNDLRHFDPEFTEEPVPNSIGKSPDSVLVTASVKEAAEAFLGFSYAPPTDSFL

Rsk4(h) = Rsk4(h) (Homo sapiens, UniProt Q9UK32)
Rsk4(h), sequence (Q9UK32 whole entry): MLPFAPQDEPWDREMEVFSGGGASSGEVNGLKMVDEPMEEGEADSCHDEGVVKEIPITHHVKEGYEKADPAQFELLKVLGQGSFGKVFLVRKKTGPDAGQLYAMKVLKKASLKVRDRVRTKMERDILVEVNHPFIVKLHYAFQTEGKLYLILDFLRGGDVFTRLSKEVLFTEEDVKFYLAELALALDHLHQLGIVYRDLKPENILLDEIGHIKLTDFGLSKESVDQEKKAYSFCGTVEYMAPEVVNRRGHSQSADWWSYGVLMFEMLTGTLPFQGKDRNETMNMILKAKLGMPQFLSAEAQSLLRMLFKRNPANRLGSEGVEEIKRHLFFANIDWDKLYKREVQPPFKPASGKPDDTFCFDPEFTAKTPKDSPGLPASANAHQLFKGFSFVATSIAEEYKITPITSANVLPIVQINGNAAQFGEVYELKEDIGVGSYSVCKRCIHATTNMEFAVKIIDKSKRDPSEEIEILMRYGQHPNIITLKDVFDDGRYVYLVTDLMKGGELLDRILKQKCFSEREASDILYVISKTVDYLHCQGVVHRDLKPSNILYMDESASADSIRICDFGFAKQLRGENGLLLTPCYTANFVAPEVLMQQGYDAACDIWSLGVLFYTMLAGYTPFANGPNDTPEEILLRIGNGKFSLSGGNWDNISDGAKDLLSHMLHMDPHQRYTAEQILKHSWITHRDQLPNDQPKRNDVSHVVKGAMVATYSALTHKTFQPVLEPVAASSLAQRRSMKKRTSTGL

MST2(h) = target: T3, MST2(h) (Homo sapiens, UniProt Q13188)
T3 sequence (Q13188 1-491): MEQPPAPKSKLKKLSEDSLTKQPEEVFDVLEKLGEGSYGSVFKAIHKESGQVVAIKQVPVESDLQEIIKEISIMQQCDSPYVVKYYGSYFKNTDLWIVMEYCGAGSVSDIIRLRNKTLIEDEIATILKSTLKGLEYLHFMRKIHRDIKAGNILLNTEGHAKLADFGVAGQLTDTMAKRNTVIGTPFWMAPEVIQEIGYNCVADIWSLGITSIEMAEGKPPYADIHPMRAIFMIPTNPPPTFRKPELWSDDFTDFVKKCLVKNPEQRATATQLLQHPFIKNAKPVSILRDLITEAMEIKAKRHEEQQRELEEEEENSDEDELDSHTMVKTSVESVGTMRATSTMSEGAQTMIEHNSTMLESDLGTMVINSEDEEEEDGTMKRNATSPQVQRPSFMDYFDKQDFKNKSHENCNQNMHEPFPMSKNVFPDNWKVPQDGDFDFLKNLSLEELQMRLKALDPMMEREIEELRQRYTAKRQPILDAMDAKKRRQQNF

Fms(Y969C)(h) = Fms(Y969C)(h) (Homo sapiens, UniProt P07333, Y969C)
Itk(h) = target: T4, Itk(h) (Homo sapiens, UniProt Q08881)
T4 sequence (Q08881 1-620): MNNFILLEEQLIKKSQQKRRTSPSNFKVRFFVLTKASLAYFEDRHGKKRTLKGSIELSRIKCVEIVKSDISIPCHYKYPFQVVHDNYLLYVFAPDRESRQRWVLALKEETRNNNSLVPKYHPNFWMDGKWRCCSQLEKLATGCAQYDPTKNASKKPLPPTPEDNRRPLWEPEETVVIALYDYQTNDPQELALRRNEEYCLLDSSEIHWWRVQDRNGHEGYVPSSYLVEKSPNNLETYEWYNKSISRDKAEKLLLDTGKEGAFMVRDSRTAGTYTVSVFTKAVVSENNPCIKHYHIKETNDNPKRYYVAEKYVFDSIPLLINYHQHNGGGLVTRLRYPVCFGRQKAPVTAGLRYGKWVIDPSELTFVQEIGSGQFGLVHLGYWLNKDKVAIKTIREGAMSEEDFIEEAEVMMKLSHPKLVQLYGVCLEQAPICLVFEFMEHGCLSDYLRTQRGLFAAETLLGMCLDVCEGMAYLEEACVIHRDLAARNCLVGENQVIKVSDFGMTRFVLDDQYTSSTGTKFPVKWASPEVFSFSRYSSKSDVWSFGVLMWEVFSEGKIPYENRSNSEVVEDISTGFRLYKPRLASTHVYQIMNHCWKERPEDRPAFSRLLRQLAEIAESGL

EphA2(h) = EphA2(h) (Homo sapiens, UniProt P29317)

Sequence | % activity (Rse(h)) [%] | % activity (Ret(V804M)(h)) [%] | % activity (SGK(h)) [%] | % activity (Rsk4(h)) [%] | % activity (MST2(h)) [%] | % activity (Fms(Y969C)(h)) [%] | % activity (Itk(h)) [%] | % activity (EphA2(h)) [%]
FAKLAARLYRKALARQLGVAA [MMI-0300] | 88 | 95 | 48 | 90 | 19 | 72 | 77 | 31
HRRIKAWLKKIKALARQLGVAA [MMI-0500] | 63 | 36 | 2 | 29 | 2 | – | 7 | –
KAFAKLAARLYRKALARQLGVAA [MMI-0400] | 89 | 87 | 54 | 91 | 11 | 91 | 63 | 17
YARAAARQARAKALNRQLGVA [MMI-0200] | 88 | – | – | 125 | – | 88 | 98 | 95
